# According to PMC7132122:
# Assays:
# [1] = target: DHX15ΔN;NKRF G-patch V582G (Homo sapiens;Homo sapiens, UniProt O43143;O15226 113-795;541-603, |V582G); assay: fluorescence polarization
# DHX15ΔN;NKRF G-patch wt = DHX15ΔN;NKRF G-patch wt (Homo sapiens;Homo sapiens, UniProt O43143;O15226 113-795;541-603, |); assay: fluorescence polarization
# Chain of DHX15ΔN;NKRF G-patch wt (O43143 113-795, stated change not applied, chain 1 of 2): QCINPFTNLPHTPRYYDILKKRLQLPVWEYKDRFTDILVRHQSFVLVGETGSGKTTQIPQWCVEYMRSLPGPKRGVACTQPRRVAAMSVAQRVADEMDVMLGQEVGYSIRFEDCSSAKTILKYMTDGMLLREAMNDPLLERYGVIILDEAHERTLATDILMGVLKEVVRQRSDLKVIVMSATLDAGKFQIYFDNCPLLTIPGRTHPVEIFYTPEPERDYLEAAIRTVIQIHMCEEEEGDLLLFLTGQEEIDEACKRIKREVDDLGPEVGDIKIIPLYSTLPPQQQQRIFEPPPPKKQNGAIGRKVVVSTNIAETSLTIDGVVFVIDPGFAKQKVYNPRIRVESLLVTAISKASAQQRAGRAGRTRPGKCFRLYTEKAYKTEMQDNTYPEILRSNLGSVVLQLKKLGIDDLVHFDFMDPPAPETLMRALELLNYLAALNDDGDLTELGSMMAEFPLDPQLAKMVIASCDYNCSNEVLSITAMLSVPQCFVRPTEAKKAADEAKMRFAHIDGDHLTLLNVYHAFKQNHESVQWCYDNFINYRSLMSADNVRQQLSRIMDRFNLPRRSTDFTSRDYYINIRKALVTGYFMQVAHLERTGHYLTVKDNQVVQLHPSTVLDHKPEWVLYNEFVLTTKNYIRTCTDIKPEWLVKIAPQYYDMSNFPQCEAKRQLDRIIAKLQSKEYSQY
# Chain of DHX15ΔN;NKRF G-patch wt (O15226 541-603, stated change not applied, chain 2 of 2): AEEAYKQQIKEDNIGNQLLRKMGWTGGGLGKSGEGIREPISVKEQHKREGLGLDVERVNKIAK
# Chain of DHX15ΔN;NKRF G-patch V582G (O43143 113-795, chain 1 of 2): as the sequence (O43143 113-795, stated change not applied, chain 1 of 2) above
# Chain of DHX15ΔN;NKRF G-patch V582G (O15226 541-603 V582G, chain 2 of 2): as the sequence (O15226 541-603, stated change not applied, chain 2 of 2) above, with V42G counted along it
binder,measurement,setting,value
UUUUUUUUUUUU (ssRNA) [FAM-U12 RNA],binding signal,[1],1.2 fold increase of affinity
same,binding signal,DHX15ΔN;NKRF G-patch wt,~1 fold of Kd without nucleotide
